Experimental data reported in patent US20260022175A1 (Chugai, published 2026).
Changes are numbered by the printed parent chain.

How the values were obtained:
human CTLA4 [1] = molecular target: T1, human CTLA4 (human); test: SPR Biacore T200, 37C, antibody captured, ATP 10 uM
T1 construct: also called hCTLA4; hCTLA4-His-BAP
Protocol: (§1) Biacore T200 was used to measure the binding of the generated antibodies to human CTLA4. 20 mM ACES (pH 7.4), 150 mM NaCl, 2 mM MgCl₂, 0.05% Tween 20 with ATP added to the desired concentration was used as the running buffer, and the assay was performed at 37° C. First, Protein G (CALBIOCHEM) was immobilized onto a Series S Sensor Chip CM3 (GE Healthcare), and the antibodies were captured by interacting an antibody solution prepared in an ATP-free running buffer with the chip. Next, by interacting with a human CTLA4 solution prepared in a running buffer containing ATP to the desired concentration, or a human CTLA4 solution prepared in a running buffer containing no ATP, the binding ability of the antibody to human CTLA4 in the presence or absence of ATP was evaluated. Chips were regenerated with 25 mM NaOH and 10 mM Glycine-HCl (pH 1.5), and assay was performed by repeatedly capturing antibodies. The dissociation constant of each antibody for CTLA4 was calculated using Biacore T200 Evaluation Software 2.0. Specifically, the binding rate constant ka (L/mol/s) and the dissociation rate constant kd (1/s) were calculated by global fitting of the sensorgrams obtained by the measurement, using a 1:1 Langmuir binding model. The dissociation constant KD (mol/L) was calculated from those values. Alternatively, the dissociation constant KD (mol/L) was calculated by the steady state model. In addition, the binding amount of CTLA4 per unit amount of antibody was calculated by correcting the amount of CTLA4 bound as calculated from the sensorgram obtained by the assay with the amount of antibody captured onto the chip surface.
(§2) The binding ability of the generated variants to human CTLA4 in the presence of ADP or AMP was evaluated by Biacore T200 and compared with the binding ability in the presence of ATP.

human CTLA4 [2] = molecular target: T1, human CTLA4; test: SPR Biacore T200, 37C, antibody captured, ATP 1 uM
[3] = molecular target: T2, cynomolgus monkey CTLA4 (CyCTLA4-His-BAP) (cynomolgus monkey); test: SPR Biacore T200, 37C, antibody captured, ATP 10 uM
human CTLA4 [4] = molecular target: T1, human CTLA4; test: as above; remark: listed apart in the source
[5] = molecular target: T3, mouse CTLA4 extracellular region linked with a His-tag (mCTLA4-His) (mouse, UniProt P09793 36-161); test: as above
[6] = molecular target: T2, cynomolgus monkey CTLA4 …; test: SPR Biacore T200, 37C, antibody captured, ATP 1 uM
Protocol: as §1
(§3) Next, the binding ability of some variants to mouse CTLA4 and cynomolgus monkey CTLA4 was evaluated.

human CTLA4 [7] = molecular target: T1, human CTLA4; test: SPR Biacore T200, 37C, antibody captured, ATP 1 uM; remark: listed apart in the source
Protocol: as §1, §3

[8] = molecular target: T3, mouse CTLA4 extracellular region linked …; test: SPR Biacore T200, 37C, antibody captured, ATP 1 uM
Protocol: as §1, §3

human CTLA4 [9] = molecular target: T1, human CTLA4; test: SPR Biacore T200, 37C, antibody captured, no ATP, steady state model
Protocol: Biacore T200 was used to measure the binding of the generated antibodies to human CTLA4. 20 mM ACES (pH 7.4), 150 mM NaCl, 2 mM MgCl₂, 0.05% Tween 20 with ATP added to the desired concentration was used as the running buffer, and the assay was performed at 37° C. First, Protein G (CALBIOCHEM) was immobilized onto a Series S Sensor Chip CM3 (GE Healthcare), and the antibodies were captured by interacting an antibody solution prepared in an ATP-free running buffer with the chip. Next, by interacting with a human CTLA4 solution prepared in a running buffer containing ATP to the desired concentration, or a human CTLA4 solution prepared in a running buffer containing no ATP, the binding ability of the antibody to human CTLA4 in the presence or absence of ATP was evaluated. Chips were regenerated with 25 mM NaOH and 10 mM Glycine-HCl (pH 1.5), and assay was performed by repeatedly capturing antibodies. The dissociation constant of each antibody for CTLA4 was calculated using Biacore T200 Evaluation Software 2.0. Specifically, the binding rate constant ka (L/mol/s) and the dissociation rate constant kd (1/s) were calculated by global fitting of the sensorgrams obtained by the measurement, using a 1:1 Langmuir binding model. The dissociation constant KD (mol/L) was calculated from those values. Alternatively, the dissociation constant KD (mol/L) was calculated by the steady state model.

human CTLA4 [10] = molecular target: T1, human CTLA4; test: SPR Biacore T200, 37C, antibody captured, ATP 10 uM; remark: listed apart in the source
human CTLA4 [11] = molecular target: T1, human CTLA4; test: SPR Biacore T200, 37C, antibody captured, ADP 10 uM;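 also: antibodies held on a Protein G CM3 chip, human CTLA4 as analyte in ACES pH 7.4 buffer, rates from a global 1:1 Langmuir fit, Kd from rates or steady state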
[12] = molecular target: T2, cynomolgus monkey CTLA4 …; test: SPR Biacore T200, 37C, antibody captured, ATP 100 uM
Protocol: as §1, §3

human CTLA4 [13] = molecular target: T1, human CTLA4; test: as above
Protocol: as §1, §3

[14] = molecular target: T3, mouse CTLA4 extracellular region linked …; test: as above
Protocol: as §1, §3

human CTLA4 [15] = molecular target: T1, human CTLA4; test: SPR Biacore T200, 37C, antibody captured, AMP 10 uM
Protocol: as §1, §2

human CTLA4 [16] = molecular target: T1, human CTLA4; test: SPR, 37C, antibody captured by anti-mouse IgG, ATP 10 uM
Protocol: (§4) 20 mM ACES (pH 7.4), 150 mM NaCl, 2 mM MgCl₂, 0.05% Tween 20 with ATP added to the desired concentrations was used as the running buffer, and the assay was performed at 37° C. First, Rabbit Anti-Mouse IgG (Thermo Fisher Scientific) was immobilized onto Series S Sensor Chips CM5 (GE Healthcare), and the antibody was captured onto the chip by interacting an antibody solution prepared in an ATP-free running buffer. Next, the binding ability of the antibody to human CTLA4 in the presence or absence of ATP was evaluated by interacting with a human CTLA4 solution prepared in a running buffer with ATP added to the desired concentration, or a human CTLA4 solution prepared in an ATP-free running buffer. Chips were regenerated with 25 mM NaOH and 10 mM Glycine-HCl (pH 1.5) and assay was performed by repeatedly capturing antibodies. The dissociation constant of each antibody for CTLA4 was calculated using Biacore T200 Evaluation Software 2.0. Specifically, the binding rate constant ka (L/mol/s) and the dissociation rate constant kd (1/s) were calculated by global fitting of the sensorgrams obtained by the measurement using the 1:1 Langmuir binding model, and the dissociation constant KD (mol/L) was calculated from those values.

human CTLA4 [17] = molecular target: T1, human CTLA4; test: SPR, 37C, antibody captured by anti-mouse IgG, ATP 1 uM
Protocol: as §4

human CTLA4 [18] = molecular target: T1, human CTLA4; test: SPR, 37C, antibody captured by anti-mouse IgG, ATP 100 uM
Protocol: as §4

[19] = molecular target: T4, human C1q protein (Calbiochem) (human, UniProt P02745 23-245; P02746 28-253; P02747 29-245); test: ELISA, antibody on the plate, hC1q 3 µg/mL
T4 construct: bought; also called hC1q
T4 sequence (P02745 23-245 limits assumed, chain 1 of 3): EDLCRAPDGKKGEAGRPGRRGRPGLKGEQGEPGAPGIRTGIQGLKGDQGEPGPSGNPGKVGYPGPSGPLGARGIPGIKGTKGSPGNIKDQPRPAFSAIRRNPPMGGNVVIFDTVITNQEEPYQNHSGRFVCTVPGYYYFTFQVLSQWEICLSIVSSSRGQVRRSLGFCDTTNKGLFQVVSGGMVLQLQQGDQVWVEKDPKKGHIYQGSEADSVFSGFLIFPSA
T4 sequence (P02746 28-253 limits assumed, chain 2 of 3): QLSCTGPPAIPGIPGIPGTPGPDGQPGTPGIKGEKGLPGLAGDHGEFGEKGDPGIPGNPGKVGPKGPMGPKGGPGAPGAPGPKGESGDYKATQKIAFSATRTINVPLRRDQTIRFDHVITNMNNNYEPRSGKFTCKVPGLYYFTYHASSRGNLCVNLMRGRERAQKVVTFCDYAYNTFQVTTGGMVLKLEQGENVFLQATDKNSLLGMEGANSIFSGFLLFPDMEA
T4 sequence (P02747 29-245 limits assumed, chain 3 of 3): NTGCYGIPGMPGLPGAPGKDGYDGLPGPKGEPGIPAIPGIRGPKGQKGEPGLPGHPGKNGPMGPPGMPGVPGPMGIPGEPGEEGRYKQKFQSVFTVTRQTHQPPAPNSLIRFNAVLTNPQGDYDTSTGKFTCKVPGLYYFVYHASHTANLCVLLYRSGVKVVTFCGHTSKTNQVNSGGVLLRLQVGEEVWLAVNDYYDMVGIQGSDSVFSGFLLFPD
Protocol: The antigen used was a human C1q protein (hC1q).
First, a 96-well maxisorp plate (Thermo fisher) was coated at 4° C. overnight with 50 μL of solutions containing each antibody prepared at 30, 10, 3, 1, 0.3, 0.1, and 0.03 μg/mL in PBS. Each well of the plate was washed with Wash buffer to remove the antibody not bound to the plate, and then the wells were blocked with 200 μL of Blocking/dilution Buffer at room temperature for 2 hours or longer. After the Blocking/dilution Buffer was removed from each well, hC1q (Calbiochem) prepared such that the final concentration was 3 μg/mL in Blocking/dilution Buffer was added at 50 μL per well. The plate was then allowed to stand at room temperature for 1 hour to allow hC1q to bind to the antibody within each well. After washing with Wash Buffer, 50 μL of an HRP-conjugated anti-hC1q antibody (AbDSerotec) diluted with Blocking/dilution Buffer was added to each well, and the plate was incubated while standing for 1 hour. After washing with Wash Buffer, TMB single solution (Invitrogen) was added. The color development reaction of the solution in each well was stopped by addition of Stop Buffer, and then the developed color was measured by absorbance at 450 nm and 690 nm.

T1 sequence (chain, as listed by the source limits assumed): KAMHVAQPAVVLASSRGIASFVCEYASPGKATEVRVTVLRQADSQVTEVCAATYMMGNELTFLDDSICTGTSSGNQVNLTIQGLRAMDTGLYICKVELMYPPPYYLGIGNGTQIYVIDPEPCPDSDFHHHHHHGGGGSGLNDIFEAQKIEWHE
T2 sequence (chain, as listed by the source limits assumed): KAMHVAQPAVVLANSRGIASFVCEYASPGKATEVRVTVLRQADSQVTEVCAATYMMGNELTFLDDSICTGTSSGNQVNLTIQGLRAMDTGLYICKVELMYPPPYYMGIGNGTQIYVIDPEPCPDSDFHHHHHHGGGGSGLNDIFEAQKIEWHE

B1: 04H1654-G1m/04L1612-lam1 (antibody, human IgG1, lambda)
heavy: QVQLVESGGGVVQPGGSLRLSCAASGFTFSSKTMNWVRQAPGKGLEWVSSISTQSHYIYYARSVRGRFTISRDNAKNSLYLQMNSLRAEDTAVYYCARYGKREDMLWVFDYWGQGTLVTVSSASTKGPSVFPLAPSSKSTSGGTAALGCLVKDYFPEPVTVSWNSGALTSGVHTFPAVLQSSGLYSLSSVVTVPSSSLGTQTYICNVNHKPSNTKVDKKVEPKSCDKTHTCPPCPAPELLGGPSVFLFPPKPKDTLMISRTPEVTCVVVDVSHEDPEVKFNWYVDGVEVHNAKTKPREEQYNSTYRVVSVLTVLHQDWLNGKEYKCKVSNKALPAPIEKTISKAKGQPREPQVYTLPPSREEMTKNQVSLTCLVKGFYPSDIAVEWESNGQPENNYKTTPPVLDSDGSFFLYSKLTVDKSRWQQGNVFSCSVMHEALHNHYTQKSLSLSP
light: QSALTQPPSASGSPGQSVTISCEGPSTGVGDYTYVHWYQQHPGKAPKLMIYFTSKKPSGVPDRFSGSKSGNTASLTVSGLQAEDEADYYCQTYAAPLGPMFGGGTKLTVLGQPKAAPSVTLFPPSSEELQANKATLVCLISDFYPGAVTVAWKADSSPVKAGVETTTPSKQSNNKYAASSYLSLTPEQWKSHRSYSCQVTHEGSTVEKTVAPTECS
Kd (human CTLA4 [1]): 36 nM
koff (human CTLA4 [1]): 0.0027 s⁻¹
kon (human CTLA4 [1]): 74000 M⁻¹ s⁻¹
Kd (human CTLA4 [2]): 200 nM
Kd [3]: 54 nM
Kd (human CTLA4 [4]): 30 nM
Kd [5]: 48 nM
Kd [6]: 310 nM
Kd (human CTLA4 [7]): 170 nM
Kd [8]: 390 nM
Kd (human CTLA4 [9]): 4800 nM
Kd (human CTLA4 [10]): 33 nM
Kd (human CTLA4 [11]): 56 nM
koff (human CTLA4 [11]): 0.005 s⁻¹
kon (human CTLA4 [11]): 89000 M⁻¹ s⁻¹
Kd [12]: 21 nM
Kd (human CTLA4 [13]): 11 nM
Kd [14]: 18 nM
Kd (human CTLA4 [15]): 170 nM
koff (human CTLA4 [15]): 0.016 s⁻¹
kon (human CTLA4 [15]): 94000 M⁻¹ s⁻¹

B2: 04H1656-G1m/04L1610-lam1 (antibody, human IgG1, lambda)
heavy: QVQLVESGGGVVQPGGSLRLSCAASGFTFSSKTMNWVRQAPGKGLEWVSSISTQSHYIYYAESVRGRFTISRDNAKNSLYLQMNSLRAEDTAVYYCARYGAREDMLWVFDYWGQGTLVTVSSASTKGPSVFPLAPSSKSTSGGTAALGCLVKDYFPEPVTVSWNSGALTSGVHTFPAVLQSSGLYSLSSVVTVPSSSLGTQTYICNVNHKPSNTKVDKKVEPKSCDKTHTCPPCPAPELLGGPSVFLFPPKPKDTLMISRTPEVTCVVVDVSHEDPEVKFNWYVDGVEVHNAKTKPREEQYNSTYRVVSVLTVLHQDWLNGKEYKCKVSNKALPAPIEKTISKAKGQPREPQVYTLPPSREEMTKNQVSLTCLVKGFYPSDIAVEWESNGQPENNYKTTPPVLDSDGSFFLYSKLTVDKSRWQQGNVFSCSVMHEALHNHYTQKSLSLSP
light: B1 light with T33N, Y34W
Kd (human CTLA4 [1]): 15 nM
koff (human CTLA4 [1]): 0.0019 s⁻¹
kon (human CTLA4 [1]): 130000 M⁻¹ s⁻¹
Kd (human CTLA4 [2]): 98 nM
Kd [3]: 26 nM
Kd (human CTLA4 [4]): 16 nM
Kd [5]: 37 nM
Kd [6]: 120 nM
Kd (human CTLA4 [7]): 79 nM
Kd [8]: 230 nM
Kd (human CTLA4 [9]): 2200 nM
Kd (human CTLA4 [10]): 19 nM
Kd (human CTLA4 [11]): 25 nM
koff (human CTLA4 [11]): 0.0043 s⁻¹
kon (human CTLA4 [11]): 170000 M⁻¹ s⁻¹
Kd [12]: 10 nM
Kd (human CTLA4 [13]): 6.2 nM
Kd [14]: 14 nM
Kd (human CTLA4 [15]): 82 nM
koff (human CTLA4 [15]): 0.014 s⁻¹
kon (human CTLA4 [15]): 170000 M⁻¹ s⁻¹

B3: 04H1389-mFa55/04L1615-mk1 (antibody, mouse IgG2a, kappa)
heavy: EVQLVESGGGLVKPGGSLRLSCAASGFTFSSKTMNWVRQAPGKGLEWVSSISTQSHYIYYAESVKGRFTISRDNAKNSLYLQMNSLRAEDTAVYYCARYGKREDMLWVFDYWGQGTLVTVSSAKTTAPSVYPLAPVCGDTTGSSVTLGCLVKGYFPEPVTLTWNSGSLSSGVHTFPAVLQSDLYTLSSSVTVTSSTWPSQSITCNVAHPASSTKVDKKIEPRGPTIKPCPPCKCPAPNLLGGPDVFIFPPKIKDVLMISLSPIVTCVVVDVSEDDPDVQISWFVNNVEVHTAQTQTHREDYNSTLRVVSALPIQHQDWMSGKEFKCKVNNKDLPAPIERTISKPKGSVRAPQVYVLPPPEEEMTKKQVTLTCMVTDFMPEDIYVEWTNNGKTELNYKNTEPVLDSDGSYFMYSKLRVEKKNWVERNSYSCSVVHEGLHNHHTTKSFSRTPGK
light: DIVMTQSPLSLPVTPGEPASISCQGPSTGVGDYNYVHWYQQKPGQAPRLLIYFTSKKPSGVPDRFSGSGSGTDFTLKISRVEAEDVGVYYCQTYAAPLGPMFGQGTKLEIKRADAAPTVSIFPPSSEQLTSGGASVVCFLNNFYPKDINVKWKIDGSERQNGVLNSWTDQDSKDSTYSMSSTLTLTKDEYERHNSYTCEATHKTSTSPIVKSFNRNEC
notes: Mouse constant regions mFa55 and mk1; also called SW1615-mFa55
Kd (human CTLA4 [16]): 15 nM
Kd (human CTLA4 [17]): 45 nM
Kd (human CTLA4 [18]): 8.7 nM

B4: 04H1654-mFa55m2P1/04L1610-ml0r (antibody, mouse IgG2a)
heavy: B3 heavy with E1Q, L11V, K13Q, E62R, K65R, D404R
light: QSALTQPPSASGSPGQSVTISCEGPSTGVGDYNWVHWYQQHPGKAPKLMIYFTSKKPSGVPDRFSGSKSGNTASLTVSGLQAEDEADYYCQTYAAPLGPMFGGGTKLTVLGQPKSSPSVTLFPPSSEELETNKATLVCTITDFYPGVVTVDWKVDGTPVTQGMETTQPSKQSNNKYMASSYLTLTARAWERHSSYSCQVTHEGHTVEKSLSRADCS
notes: Mouse constant regions; also called one arm of SW1610-mFa55
Kd (human CTLA4 [16]): 17 nM
Kd (human CTLA4 [17]): 58 nM
Kd (human CTLA4 [18]): 8.5 nM

B5: 04H1656-mFa55m2N1/04L1612-ml0r (antibody, mouse IgG2a)
heavy: B3 heavy with E1Q, L11V, K13Q, K65R, K101A, K414E
light: B4 light with N33T, W34Y
notes: Mouse constant regions; also called other arm of SW1612-mFa55
Kd (human CTLA4 [16]): 20 nM
Kd (human CTLA4 [17]): 67 nM
Kd (human CTLA4 [18]): 10 nM

B6: 04H1654-mFa55m2P1/04L1612-ml0r (antibody, mouse IgG2a)
heavy: B3 heavy with E1Q, L11V, K13Q, E62R, K65R, D404R
light: B4 light with N33T, W34Y
notes: Mouse constant regions; also called one arm of SW1612-mFa55
Kd (human CTLA4 [16]): 29 nM
Kd (human CTLA4 [17]): 94 nM
Kd (human CTLA4 [18]): 12 nM

B7: 04H1656-mFa55m2N1/04L1610-ml0r (antibody, mouse IgG2a)
heavy: B3 heavy with E1Q, L11V, K13Q, K65R, K101A, K414E
light: B4 light
notes: Mouse constant regions; also called other arm of SW1610-mFa55
Kd (human CTLA4 [16]): 13 nM
Kd (human CTLA4 [17]): 47 nM
Kd (human CTLA4 [18]): 7.4 nM

B8: H240-Kn461/L73-k0//H240-Hl443/L73-k0 (antibody)
heavy 1: QDQLVQSGAEVKKPGASVKVSCKASGFNIKDTYIQWVRQAPGQGLEWMGRIDPLRKQTKYREKFEGRVTITADTSTNTAYMELSSLRSEDTAVYYCVRSGREFDYWGQGTLVTVSSASTKGPSVFPLAPSSKSTSGGTAALGCLVKDYFPEPVTVSWNSGALTSGVHTFPAVLQSSGLYSLSSVVTVPSSSLGTQTYICNVNHKPSNTKVDKKVEPKSCDKTHTCPPCPAPEFQWGPMVFLFPPKPKDVLMISRTPEVTCVVVDVSDEEPEVKFNWYVDGVEVHNAKTKPREEQYNATYRVVSVLPVLHQDWLNGKEYKCKVSNDALPAPEEKTISKAKGQPREPQVCTLPPSRDELTKNQVSLWCLVKGFYPSDIAVEWESNGQPENNYKTTPPVLDSDGSFFLYSKLTVDKSRWQQGNVFSCSVMHEALHNHYTQKSLSLSP
heavy 2: QDQLVQSGAEVKKPGASVKVSCKASGFNIKDTYIQWVRQAPGQGLEWMGRIDPLRKQTKYREKFEGRVTITADTSTNTAYMELSSLRSEDTAVYYCVRSGREFDYWGQGTLVTVSSASTKGPSVFPLAPSSKSTSGGTAALGCLVKDYFPEPVTVSWNSGALTSGVHTFPAVLQSSGLYSLSSVVTVPSSSLGTQTYICNVNHKPSNTKVDKKVEPKSCDKTHTCPPCPAPELLAGPSVFLFPPKPKDVLMISRTPEVTCVVVDVSHEEPEVKFNWYVDGVEVHNAKTKPREEQYNATYRVVSVLPVLHQDWLNGKEYKCKVSNDALPAPEEETISKAKGQPREPQVYTLPPSRCELTKNQVSLSCAVKGFYPSDIAVEWESNGQPENNYKTTPPVLDSDGSFFLVSKLTVDKSRWQQGNVFSCSVMHEALHNHYTQKSLSLSP
light: DIQMTQSPSSLSASVGDRVTITCRASQDIHKYIAWYQQKPGQAPRLLIQYTSTLQPGVPSRFSGSGSGTDYTFTISSLQPEDIATYYCLQYEQLRTFGGGTKVEIKRTVAAPSVFIFPPSDEQLKSGTASVVCLLNNFYPREAKVQWKVDNALQSGNSQESVTEQDSKDSTYSLSSTLTLSKADYEKHKVYACEVTHQGLSSPVTKSFNRGEC
notes: also called EGL-ART8; ART8; copies: 1 + 1 + 2
binding result [19]: binds

B9: H240-Kn496/L73-k0//H240-Hl516/L73-k0 (antibody)
heavy 1: B8 heavy 1 with D325K, E331I
heavy 2: B8 heavy 2 with A235G, E331I
light: B8 light
notes: also called EGL-ART11; ART11; copies: 1 + 1 + 2
binding result [19]: binds

B10: H240-Kn494/L73-k0//H240-Hl514/L73-k0 (antibody)
heavy 1: B8 heavy 1 with D325K
heavy 2: B8 heavy 2 with A235G
light: B8 light
notes: also called EGL-ART10; ART10; copies: 1 + 1 + 2
binding result [19]: binds

B11: 04H1389-G1m/04L1615-k0MT (antibody, human IgG1, kappa)
heavy: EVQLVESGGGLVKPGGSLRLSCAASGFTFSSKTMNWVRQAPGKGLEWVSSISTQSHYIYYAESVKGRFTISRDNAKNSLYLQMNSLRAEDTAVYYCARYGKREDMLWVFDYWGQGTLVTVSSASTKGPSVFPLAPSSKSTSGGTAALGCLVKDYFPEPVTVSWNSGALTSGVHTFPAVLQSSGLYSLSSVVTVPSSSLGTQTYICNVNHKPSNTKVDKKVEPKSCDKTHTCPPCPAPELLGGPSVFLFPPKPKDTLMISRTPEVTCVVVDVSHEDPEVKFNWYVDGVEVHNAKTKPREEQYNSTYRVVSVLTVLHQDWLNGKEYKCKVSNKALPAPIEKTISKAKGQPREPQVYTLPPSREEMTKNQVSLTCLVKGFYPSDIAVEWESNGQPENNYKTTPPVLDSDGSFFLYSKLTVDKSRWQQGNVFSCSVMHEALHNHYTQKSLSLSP
light: DIVMTQSPLSLPVTPGEPASISCQGPSTGVGDYNYVHWYQQKPGQAPRLLIYFTSKKPSGVPDRFSGSGSGTDFTLKISRVEAEDVGVYYCQTYAAPLGPMFGQGTKLEIKRTVAAPSVFIFPPSDEQLKSGTASVVCLLNNFYPREAKVQWKVDNALQSGNSQESVTEQDSKDSTYSLSSTLTLSKADYEKHKVYACEVTHQGLSSPVTKSFNRGEC
Kd (human CTLA4 [1]): 11 nM
koff (human CTLA4 [1]): 0.0015 s⁻¹
kon (human CTLA4 [1]): 130000 M⁻¹ s⁻¹
Kd (human CTLA4 [2]): 72 nM
Kd [3]: 21 nM
Kd (human CTLA4 [4]): 12 nM
Kd [5]: 26 nM
Kd [6]: 110 nM
Kd (human CTLA4 [7]): 58 nM
Kd [8]: 160 nM
Kd (human CTLA4 [9]): 2000 nM
Kd (human CTLA4 [10]): 15 nM
Kd (human CTLA4 [11]): 17 nM
koff (human CTLA4 [11]): 0.003 s⁻¹
kon (human CTLA4 [11]): 180000 M⁻¹ s⁻¹
Kd [12]: 9.3 nM
Kd (human CTLA4 [13]): 5 nM
Kd [14]: 10 nM
Kd (human CTLA4 [15]): 55 nM
koff (human CTLA4 [15]): 0.0097 s⁻¹
kon (human CTLA4 [15]): 170000 M⁻¹ s⁻¹
